Assay results: patent US20130336893A1 (Sanofi, published 2013)
*1 amine or outer side, *2 acyl side, *3 side chain or, on linkers, in order; H or OH if unused. Where no end group is shown, it is not given here. Side-chain parts run from the residue outwards. [ ]: non-standard residue; d: D form. The star is where a group is joined. γGlu = O=C(O)[C@H](CCC(=O)[*:2])N[*:1]; Desaminohistidyl = O=C(CCc1c[nH]cn1)*; Ser(Me) = COC[C@H](N[*:1])C(=O)[*:2]; Palmitoyl = CCCCCCCCCCCCCCCC(=O)*; NMeQ = CN[C@@H](CCC(N)=O)C(=O)O; Aib = CC(C)(N)C(=O)O; GABA = NCCCC(=O)O

B1: SEQ ID NO: (115) (peptide)
peptide: H[dS]QGTFTSDLSKQMEEEAA[Aib]DFIEWLKAGGPSSGAPPPSK([γGlu-Palmitoyl])-NH2
modifications: N-terminus assumed
SMILES: CCCCCCCCCCCCCCCC(=O)N[C@@H](CCC(=O)NCCCC[C@H](NC(=O)[C@H](CO)NC(=O)[C@@H]1CCCN1C(=O)[C@@H]1CCCN1C(=O)[C@@H]1CCCN1C(=O)[C@H](C)NC(=O)CNC(=O)[C@H](CO)NC(=O)[C@H](CO)NC(=O)[C@@H]1CCCN1C(=O)CNC(=O)CNC(=O)[C@H](C)NC(=O)[C@H](CCCCN)NC(=O)[C@H](CC(C)C)NC(=O)[C@H](Cc1c[nH]c2ccccc12)NC(=O)[C@H](CCC(=O)O)NC(=O)[C@@H](NC(=O)[C@H](Cc1ccccc1)NC(=O)[C@H](CC(=O)O)NC(=O)C(C)(C)NC(=O)[C@H](C)NC(=O)[C@H](C)NC(=O)[C@H](CCC(=O)O)NC(=O)[C@H](CCC(=O)O)NC(=O)[C@H](CCC(=O)O)NC(=O)[C@H](CCSC)NC(=O)[C@H](CCC(N)=O)NC(=O)[C@H](CCCCN)NC(=O)[C@H](CO)NC(=O)[C@H](CC(C)C)NC(=O)[C@H](CC(=O)O)NC(=O)[C@H](CO)NC(=O)[C@@H](NC(=O)[C@H](Cc1ccccc1)NC(=O)[C@@H](NC(=O)CNC(=O)[C@H](CCC(N)=O)NC(=O)[C@@H](CO)NC(=O)[C@@H](N)Cc1c[nH]cn1)[C@@H](C)O)[C@@H](C)O)[C@@H](C)CC)C(N)=O)C(=O)O
B2: SEQ ID NO: (124) (peptide)
peptide: H[dS]QGTFTSDLSKQMESRRAQDFIEWLKSGGPSSGAPPPK([GABA-Palmitoyl])-NH2
modifications: N-terminus assumed
SMILES: CCCCCCCCCCCCCCCC(=O)NCCCC(=O)NCCCC[C@H](NC(=O)[C@@H]1CCCN1C(=O)[C@@H]1CCCN1C(=O)[C@@H]1CCCN1C(=O)[C@H](C)NC(=O)CNC(=O)[C@H](CO)NC(=O)[C@H](CO)NC(=O)[C@@H]1CCCN1C(=O)CNC(=O)CNC(=O)[C@H](CO)NC(=O)[C@H](CCCCN)NC(=O)[C@H](CC(C)C)NC(=O)[C@H](Cc1c[nH]c2ccccc12)NC(=O)[C@H](CCC(=O)O)NC(=O)[C@@H](NC(=O)[C@H](Cc1ccccc1)NC(=O)[C@H](CC(=O)O)NC(=O)[C@H](CCC(N)=O)NC(=O)[C@H](C)NC(=O)[C@H](CCCNC(=N)N)NC(=O)[C@H](CCCNC(=N)N)NC(=O)[C@H](CO)NC(=O)[C@H](CCC(=O)O)NC(=O)[C@H](CCSC)NC(=O)[C@H](CCC(N)=O)NC(=O)[C@H](CCCCN)NC(=O)[C@H](CO)NC(=O)[C@H](CC(C)C)NC(=O)[C@H](CC(=O)O)NC(=O)[C@H](CO)NC(=O)[C@@H](NC(=O)[C@H](Cc1ccccc1)NC(=O)[C@@H](NC(=O)CNC(=O)[C@H](CCC(N)=O)NC(=O)[C@@H](CO)NC(=O)[C@@H](N)Cc1c[nH]cn1)[C@@H](C)O)[C@@H](C)O)[C@@H](C)CC)C(N)=O
B3: SEQ ID NO: (125) (peptide)
peptide: H[dS]QGTFTSDLSKQMESRRAQDFIEWLKSGGPSSGAPPPSK([GABA-Palmitoyl])-NH2
modifications: N-terminus assumed
SMILES: CCCCCCCCCCCCCCCC(=O)NCCCC(=O)NCCCC[C@H](NC(=O)[C@H](CO)NC(=O)[C@@H]1CCCN1C(=O)[C@@H]1CCCN1C(=O)[C@@H]1CCCN1C(=O)[C@H](C)NC(=O)CNC(=O)[C@H](CO)NC(=O)[C@H](CO)NC(=O)[C@@H]1CCCN1C(=O)CNC(=O)CNC(=O)[C@H](CO)NC(=O)[C@H](CCCCN)NC(=O)[C@H](CC(C)C)NC(=O)[C@H](Cc1c[nH]c2ccccc12)NC(=O)[C@H](CCC(=O)O)NC(=O)[C@@H](NC(=O)[C@H](Cc1ccccc1)NC(=O)[C@H](CC(=O)O)NC(=O)[C@H](CCC(N)=O)NC(=O)[C@H](C)NC(=O)[C@H](CCCNC(=N)N)NC(=O)[C@H](CCCNC(=N)N)NC(=O)[C@H](CO)NC(=O)[C@H](CCC(=O)O)NC(=O)[C@H](CCSC)NC(=O)[C@H](CCC(N)=O)NC(=O)[C@H](CCCCN)NC(=O)[C@H](CO)NC(=O)[C@H](CC(C)C)NC(=O)[C@H](CC(=O)O)NC(=O)[C@H](CO)NC(=O)[C@@H](NC(=O)[C@H](Cc1ccccc1)NC(=O)[C@@H](NC(=O)CNC(=O)[C@H](CCC(N)=O)NC(=O)[C@@H](CO)NC(=O)[C@@H](N)Cc1c[nH]cn1)[C@@H](C)O)[C@@H](C)O)[C@@H](C)CC)C(N)=O
B4: SEQ ID NO: (24) (peptide)
peptide: [Desaminohistidyl]SQGTFTSDLSKQMDSRRAQDFIEWLKNGGPSSGAPPPS-NH2
SMILES: CC[C@H](C)[C@H](NC(=O)[C@H](Cc1ccccc1)NC(=O)[C@H](CC(=O)O)NC(=O)[C@H](CCC(N)=O)NC(=O)[C@H](C)NC(=O)[C@H](CCCNC(=N)N)NC(=O)[C@H](CCCNC(=N)N)NC(=O)[C@H](CO)NC(=O)[C@H](CC(=O)O)NC(=O)[C@H](CCSC)NC(=O)[C@H](CCC(N)=O)NC(=O)[C@H](CCCCN)NC(=O)[C@H](CO)NC(=O)[C@H](CC(C)C)NC(=O)[C@H](CC(=O)O)NC(=O)[C@H](CO)NC(=O)[C@@H](NC(=O)[C@H](Cc1ccccc1)NC(=O)[C@@H](NC(=O)CNC(=O)[C@H](CCC(N)=O)NC(=O)[C@H](CO)NC(=O)CCc1c[nH]cn1)[C@@H](C)O)[C@@H](C)O)C(=O)N[C@@H](CCC(=O)O)C(=O)N[C@@H](Cc1c[nH]c2ccccc12)C(=O)N[C@@H](CC(C)C)C(=O)N[C@@H](CCCCN)C(=O)N[C@@H](CC(N)=O)C(=O)NCC(=O)NCC(=O)N1CCC[C@H]1C(=O)N[C@@H](CO)C(=O)N[C@@H](CO)C(=O)NCC(=O)N[C@@H](C)C(=O)N1CCC[C@H]1C(=O)N1CCC[C@H]1C(=O)N1CCC[C@H]1C(=O)N[C@@H](CO)C(N)=O
B5: SEQ ID NO: (25) (peptide)
peptide: HS[NMeQ]GTFTSDLSKQMDSRRAQDFIEWLKNGGPSSGAPPPS-NH2
modifications: N-terminus assumed
SMILES: CC[C@H](C)[C@H](NC(=O)[C@H](Cc1ccccc1)NC(=O)[C@H](CC(=O)O)NC(=O)[C@H](CCC(N)=O)NC(=O)[C@H](C)NC(=O)[C@H](CCCNC(=N)N)NC(=O)[C@H](CCCNC(=N)N)NC(=O)[C@H](CO)NC(=O)[C@H](CC(=O)O)NC(=O)[C@H](CCSC)NC(=O)[C@H](CCC(N)=O)NC(=O)[C@H](CCCCN)NC(=O)[C@H](CO)NC(=O)[C@H](CC(C)C)NC(=O)[C@H](CC(=O)O)NC(=O)[C@H](CO)NC(=O)[C@@H](NC(=O)[C@H](Cc1ccccc1)NC(=O)[C@@H](NC(=O)CNC(=O)[C@H](CCC(N)=O)N(C)C(=O)[C@H](CO)NC(=O)[C@@H](N)Cc1c[nH]cn1)[C@@H](C)O)[C@@H](C)O)C(=O)N[C@@H](CCC(=O)O)C(=O)N[C@@H](Cc1c[nH]c2ccccc12)C(=O)N[C@@H](CC(C)C)C(=O)N[C@@H](CCCCN)C(=O)N[C@@H](CC(N)=O)C(=O)NCC(=O)NCC(=O)N1CCC[C@H]1C(=O)N[C@@H](CO)C(=O)N[C@@H](CO)C(=O)NCC(=O)N[C@@H](C)C(=O)N1CCC[C@H]1C(=O)N1CCC[C@H]1C(=O)N1CCC[C@H]1C(=O)N[C@@H](CO)C(N)=O
B6: SEQ ID NO: (28) (peptide)
peptide: H[Ser(Me)]QGTFTSDLSKQMDSRRAQDFIEWLKNGGPSSGAPPPS-NH2
modifications: N-terminus assumed
SMILES: CC[C@H](C)[C@H](NC(=O)[C@H](Cc1ccccc1)NC(=O)[C@H](CC(=O)O)NC(=O)[C@H](CCC(N)=O)NC(=O)[C@H](C)NC(=O)[C@H](CCCNC(=N)N)NC(=O)[C@H](CCCNC(=N)N)NC(=O)[C@H](CO)NC(=O)[C@H](CC(=O)O)NC(=O)[C@H](CCSC)NC(=O)[C@H](CCC(N)=O)NC(=O)[C@H](CCCCN)NC(=O)[C@H](CO)NC(=O)[C@H](CC(C)C)NC(=O)[C@H](CC(=O)O)NC(=O)[C@H](CO)NC(=O)[C@@H](NC(=O)[C@H](Cc1ccccc1)NC(=O)[C@@H](NC(=O)CNC(=O)[C@H](CCC(N)=O)NC(=O)[C@H](COC)NC(=O)[C@@H](N)Cc1c[nH]cn1)[C@@H](C)O)[C@@H](C)O)C(=O)N[C@@H](CCC(=O)O)C(=O)N[C@@H](Cc1c[nH]c2ccccc12)C(=O)N[C@@H](CC(C)C)C(=O)N[C@@H](CCCCN)C(=O)N[C@@H](CC(N)=O)C(=O)NCC(=O)NCC(=O)N1CCC[C@H]1C(=O)N[C@@H](CO)C(=O)N[C@@H](CO)C(=O)NCC(=O)N[C@@H](C)C(=O)N1CCC[C@H]1C(=O)N1CCC[C@H]1C(=O)N1CCC[C@H]1C(=O)N[C@@H](CO)C(N)=O

The binders below were run against human glucagon receptor (human, UniProt P47871 26-477) (assay: cell-based or functional assay).
Chain of human glucagon receptor (P47871 26-477): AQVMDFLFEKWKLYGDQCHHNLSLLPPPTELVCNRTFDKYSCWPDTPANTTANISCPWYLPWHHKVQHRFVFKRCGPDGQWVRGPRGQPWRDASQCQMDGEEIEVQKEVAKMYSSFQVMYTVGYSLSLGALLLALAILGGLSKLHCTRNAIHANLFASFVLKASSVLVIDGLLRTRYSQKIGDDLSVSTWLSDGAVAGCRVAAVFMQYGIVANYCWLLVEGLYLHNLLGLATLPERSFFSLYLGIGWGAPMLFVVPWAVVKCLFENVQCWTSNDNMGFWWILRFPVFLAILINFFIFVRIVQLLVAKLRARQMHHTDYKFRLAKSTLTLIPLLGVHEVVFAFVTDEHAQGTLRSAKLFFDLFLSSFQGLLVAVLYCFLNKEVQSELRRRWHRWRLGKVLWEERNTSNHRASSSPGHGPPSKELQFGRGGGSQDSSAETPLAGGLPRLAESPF

Binder | EC50 hGlucagonR (cAMP formation) [nM]
B1 | 0.175
B2 | 0.0213
B3 | 0.0171
HSQGTFTSDLSKQMDKRRAQDFIEWLKNGGPSSGAPPPS-NH2 [SEQ ID NO: (19)] | 0.052
HSQGTFTSDLSKQMDSRRAQDFIEWLKNGGPSSGAPPPS-NH2 [SEQ ID NO: (9)] | 0.0264
HSQGTFTSDLSKQMDSRRAQDFIEWLKNGGPSSGAPPPK(Palmitoyl)-NH2 [SEQ ID NO: (21)] | 0.547
HSQGTFTSDLSKQMDSRAAQLFIEWLKNGGPSSGAPPPS-NH2 [SEQ ID NO: (22)] | 0.127
B4 | 0.168
B5 | 0.171
B6 | 6.48

Each binder was assayed against human GLP-1 receptor (human, UniProt P43220 24-463) (assay: cell-based or functional assay).

Binder | EC50 hGLP-1R (cAMP formation) [nM]
B1 | 0.0007
B2 | 0.0139
B3 | 0.0108
HSQGTFTSDLSKQMDKRRAQDFIEWLKNGGPSSGAPPPS-NH2 [SEQ ID NO: (19)] | 0.017
HSQGTFTSDLSKQMDSRRAQDFIEWLKNGGPSSGAPPPS-NH2 [SEQ ID NO: (9)] | 0.0222
HSQGTFTSDLSKQMDSRRAQDFIEWLKNGGPSSGAPPPK(Palmitoyl)-NH2 [SEQ ID NO: (21)] | 0.0782
HSQGTFTSDLSKQMDSRAAQLFIEWLKNGGPSSGAPPPS-NH2 [SEQ ID NO: (22)] | 0.0008
B4 | 0.264
B5 | 0.17
B6 | 0.128
